Test: yeast display, Sf9 membrane polyspecificity reagent, FACS + sequencing; frameworks hold sequencing errors
Outline: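 Synthetic nanobody libraries on Saccharomyces cerevisiae BJ5465 were galactose-induced for 36–48 hours, stained 1 hour at 4 °C with 10% biotinylated, detergent-solubilized Sf9 membrane reagent and enriched on streptavidin microbeads. FACS then separated cells into low and high (top ~1%) gates by anti-HA (expression) and streptavidin (reagent binding) fluorescence. Genes were colony-PCR amplified, MiSeq 2 × 250 sequenced and CDR-length filtered. A clone's polyreactivity label is that of its gate of origin.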

Row | Sequence | polyreactivity (PSR sort gate)
1 | QVQLVESGGGLVQAGGSLRLSCAASGSIFSGYVMGWYRQAPGKERELVAAISGSGGSTYYADSVKGRFTISRDNAKNTVYLQMNSLNPEDTAVYYCNKGLSRSYWWVDYWGQGTQVTVSS | low polyreactivity
2 | QVQLVESGGGLVQAGGSLRLSCAASGLTFYYYAMGWYSQPPGKERELVAAISIGGSTDYADSVKGRFTISRDNAKNTVYLQMNSLKPEDTAVYYCNVDDNSEYEYWGQGTQVTVSS | low polyreactivity
3 | QVQLVESGGGLVQAGGSLRLSCAASGRIFWGNAMGWYRQAPGKERELVAAITRSGGSTYYADSVKGRFTISRDNAKNTVYLQMNSLKPEDTAVYYCAARRNYINFRYTLDYYYWGQGTQVTVSS | high polyreactivity
4 | QRQLVESGGGLVQAGGSLRLSCAASGFIFDSNAMGRYRQEPGKERELVAAFAARGGSTYYADSVKGRFTISRDYAKHTLYLQMNSLKPEETAVYNCNAVYIVGGYWGQGTQVTVSS | high polyreactivity
5 | QVQLVESGGGLVQAGGSLRLSCAASGSIFSYNAMGWYREAPGKERELVAAISSRGRTYYADSVKGRFTISRDNAKNTVNLQMNSLKPEDTAVYYCAARGYWDLRTFYYWGQGTQVTVSS | high polyreactivity
6 | QVQLVESGGGLDQAGGSLRLSCAASGSTFPKYGMGWYRQSPGKDREFVARINWNGGGTYYADSVKGRFTISRDNAKNTVYLQMNSLKPEDTAVYYCAADYEYYYFWDYYWGQGTQVTVSS | low polyreactivity
7 | QVQLVESGGGLVQAGGSLRLSCAASGFTFAVYAMGWYRQAPGKERELVAAISRSGTRTYYADSVKGRFTISRDNAKNTVYLQMNSMKPEDTAVYYCAADKYRHGYDYWGQGTQVTVSS | low polyreactivity
8 | QVQLVESGGGLVQAGGSLRLSCAASGRIFYSYVMGWYRQAPGKDRELVGAITRSGGTTYYADSVMGRFTISRDNANNPVYLQMNSLKPEDTAVYYCATRSIFNGYGYYHPYNFWGQGTQVTVSS | high polyreactivity
9 | QVQLVESGGGLVQAGGSLRLSCAASGFTFEENAMGWYRQAPGKERELVAAINWSGGNTYYADSVKGRFTISRDNAKNTVYLQMNSLKPEDTAVYYCAADSPRYYYWVGPYYGYDYWGQGTQVTVSS | high polyreactivity
10 | QVQLVESGGGLVQAGGSLRLSCAASGRTFWFYGMGWYRQAPGKERELVADITSGGGTYYADSVKGRFTISRDNAKNTVYLQMNSLKPEDTAVYYCNAYKTHVVPATYDSEEYWGQGTQVTVSS | low polyreactivity
11 | QVQLVESGVGLVQAGGSLRLSCAASGFILGQYTMGWYRQAPGKERELVAAISSSGSTNYADSVKGRFTISRDNAKNTVYLQMNSLKPEDTAVYYCNGDGNPDFYYSFYDEYDYWGQGTQVTVSS | low polyreactivity
12 | QVQLVESGGGLVQAGGSLRLSCAASGSIFGVNAMGWYRQAPGKERELVAAISRGTSTSYADSVKGRFTISRDNAKNTVYLQMNSLKPEDTAVYYCAAEVYWRGWWYGYWGQGTQVTVSS | high polyreactivity
13 | QVQLVESGGGLVQAGGRLRLICAASGRIFYRNAMGWYRQAPGKERELVAAISYSGGRTYYADSVKGRFTISRDIAKYTVYLQMNRLKPEDTAVYYCAVYGYHEGGYWGQVTQVTVSS | high polyreactivity
14 | QVQLVESGGGLVQAGGSLRLSCAASGRTFDPYAMVWYRQAPGKERELVAAISSGGSTNYADSVKGRFTISRDNAMYTVYLQMNSLKPEDTAVYFCATDSGDGEGDYWGQGTQVTVSS | low polyreactivity
15 | QVQLVESGGGLVQAGGSLRLSFAASGYIFYYNAMGWYRQAPGKERELVAAISRGGNTYYADSVKGRFTISRDNAKNTVYLQMNSLKPEDNAVYYFNARPPNKRYKYGYWGQGTQVTVSS | high polyreactivity
16 | QVQLVESGGGLVQAGGSLRLSCAASGFTFWDYTMGWYRQAPGKERELVAAISSSGGGTYYADSVKGRFTISRDNAKNTVYLQMNSLKPVDTAVYYCAASVWYYPMDYWGQGTQVTVSS | low polyreactivity
17 | QVQLVESGGGLVQAGGSLRLSCAASGFTLGVYTMGGSRQAPGKVRELVARITSGGRTYSADSVKGRFTISRDNAKNSVYLQMNSLQPEDTAVYYCAKVDGRRTYYTVHRYERDYWGQGTQVTVSS | low polyreactivity
18 | QVQLVESGGGLVQAGGSHRLSCAASGITFYWYAMGWYRQAPGKERELVAAITRSVGSTYYADSVKGRFTISRDNAKNTVYLQMNSLKPEDTAVYYCAADFYYYGFDYWGQGTQVTVSS | low polyreactivity
19 | QVQLVESGGGLVQAGASLRLSCAGSGIIFTRYAMGWYRQAPGKERELVAAITRNGVSTYYADSVKGRFTISRDNAKNTVYLQMNSLKPEDTAVYYCNTYVLRRYAYGYWGQGTQVTVSS | high polyreactivity
20 | QVQLVESGGGLVQAGGSLRLSCAASGLIFIRYAMGWYRQAPGKERELVAAISWPGGNTYYADSVKGRFTISRDNAKNTVYLQMNSLKPEDTAVYYCAAVGTWQHRSYGYWGQGTQVTVSS | high polyreactivity
21 | QVQLVESGGGLVQAGGSLRLSCAASGTFAVYTMGWYRQAPGKERELVAAITKSGGSTYYADSVKGRFTISRDNAKNTVYLQMNRLKPEDTAVYYCATRDSPRTKNGYYYWGQGTQVTVSS | high polyreactivity
22 | QVQLVESGGGLVQAGGSLRLSCAASGSTYRGNAMGWYRQAPGKEREFVAAITVSGGSTYYADSVKGRFTISRDNAKNTVFLQMNSLKPEDTAVYYCAARLTYNYYWGQGTQVTVSS | high polyreactivity

Row | Sequence | polyreactivity (PSR sort gate)
23 | QVQRVESGGGIVQAGGSHRLSCAASGSIFRYYAMGWYRQAPGKEREFVAAISSSGGSTYYADSVKGRFTISRDNAKNTVYLQMNSLKPEDTAVYYCARDWPSYYARQYDYWGQGTQVTVSS | high polyreactivity
24 | QVQLVESGGGLVQAGGSLRLSCAATGNTFTYNTMGWYRQAPGKERELVARITFSAGRTYYADSVKGRFTISRDNAKNTVYLQMNSLKPEDTAVYYCAAYSFGLRSYYLYDYWGQGTEVTVSS | high polyreactivity
25 | QVQLVESGGGLVQAGGSLRLSCAASGNTFGYYAMGWYRQAPGKERELVAAITSSGGRTYYADSVKGRFTISRDNAKNTVYLQMNSLKPEDTAVYYCAAGRVGARYPTYRFYYWGQGTQVTVSS | high polyreactivity
26 | QVQLVESGGGLVQAGGSLRLSCAASGRIFYPYAMGWYRQAPGKERELVAAISGSGARTYYADSVKGRFTISRDNAKHTVYLQMNSLKPEDTAVYYCARYQSNSDDYWGQGTQVTVSS | high polyreactivity
27 | QVQLVESGGGLVQAGGSLRLSCAASGSIFQYNAMGWYRQAPGKERELVAVISRSGSRTYYADSVKGRFTISRDNAKNTVYLQMNSLKPEDTAVYYCAAPFTSIGARDYYYWGQGTQVTVSS | high polyreactivity
28 | QVQLVESGGGLVQAGGRLRLICSASGRIIKDNAMGWYRQAPGKERELVADISSSGGSTYYADSVKGRFTISRDNAKNTVYLQMNSLKPEDTAVYYFAKYRYPSRLYSFPLGYDYWGQGTQVTLSS | high polyreactivity
29 | QVQLVESGGGLVQAGGSLRLRCAASGSTFYYYAMGWYRQAPGKERELVAANTLRGTSTYYADSVKGRFTISRDNAKNTVYLQMNRLKPEDTAVYYCAVETYYSIFDIYDYWGQGTQVTVSS | low polyreactivity
30 | QFQLLDSGGGLVQAGGSLRLSSAPSGFTIIGYDMGWYRQAPVKERELVAAIDWSGGSTYYADSVKGRFTISRDNAKYSVDLQMHSLKPEDTAVYYCNAEWSSKRFTGDDYWGQGTQVTVSS | low polyreactivity
31 | QVQLVESGGGLVQAGGSLRLSCAASGSTFAWNAMGWYIQAPGKERELVAAISYSGGTTYYADSVKGRFTISRDNAKNTVYLQMNSLKPEDTAVYYCAKWEGHGRNPWGAGTEGDYWGQGTQVTVSS | low polyreactivity
32 | QLQLVESGGGLVQAGGSLRLSCAASGLIFRYYTMGWYRQAPGKERELVATITRGDSTYYADSVKGRFTISRDNAKNTVYLQMNSLKPEDTAVYFCAAAGWSRVGYWLKYDYWGQGTQVTVSS | high polyreactivity
33 | QVQLVESGGGLVQAGGSLRLSCAASGRTVPGYVMGWYRQARGKERELVAAITSGGSTNYADSVKGRFTISRDNAKNTVYLQMNSLKPEDTAVNYCNADRNRWPWSVFTSEYWGQGTQVTVSS | low polyreactivity
34 | QVQLVESGGGLVQAGGSLRLSCAASGLIFVNNPMGWYRQAPGKERELVAAISWSTGGSTYYADSVKGRFTISRDNAKNSVYLQMNSLKPEDTAVYYCAAQYSYGEYWGYDYWGQGTQVTVSS | low polyreactivity
35 | QVQLVESGGGLVQAGGSLRLSCAASGRTYWYYVMGWYRQAPGTERELVAAISSSGGRTYYADSVKGRFTISRDNAKNTVYLQMNSLKPEDTAVYYCNVDAWYPYQGFLVGYYYWGQGTQVTVSS | low polyreactivity
36 | QVQLVESGGGLVQAGGSLRLSCAASGSIFDDYGMGWYRQAPGKEWEFVADITSRGTRTYYADSVKGRFTISRDNAKNTVYLQMNCLKPEDTAGYYFNTLVGVDFWLVDYWGQGTQVTLSS | low polyreactivity
37 | QVQLVESGGGLVQAGGSLRLTCAASGRIIIGYVMGWYRQAPGKERELVATISYSGGSTYADSVKGRFTISRDNAKNTVYLQMNSLKPEDTAVYYCAARPYYRYYRYPYGYWGQGTQVTVSS | high polyreactivity
38 | QVQLVESGGGLVQAGGSLRLSCAASGLTFRKYVMGWYRQAPGKERELVAAISGGGGSTYYADSVKGRFTISRDNAKNTVYLQMNSLKPEDTAVYYCAAVIYRGYYYWGQGTQVTVSS | high polyreactivity
39 | QVQLVESGGGLVQAGGSLRLSCAASGFIFSKYAMGWYRQAPGKERELVASISTSGGSTYYADSVKGRFTISRDNAKNTVYLQMNSLKPEDTAVYYCAVASRSHGYKRAYYYWGQGTQVTVSS | high polyreactivity
40 | QVQLVESGGGLVQAGGSLRLSCAASGFTFNSYAMGWYRQAPGKERELVAAISSSGGRTYYADSVKGRFTISRDNAKNTVYFQMNSLKPEDTAVYYCNAVLVSYYSVGYDYWGQGSQVTVSS | high polyreactivity
41 | QVQLVESGGGLVQAGGSIRLSFPASGRTFAYNAMGRYRPAPGKERELVADITSGGSTYYADSVKGRFTISRENAKNTVYLQMNRLKREDTAVYYCAAYPQFWYWDYNYWGQGTQVTVSS | high polyreactivity
42 | QVQLVESGGGLLQAGGSLRLSCSASGFIFHYYARGLYRQAPGKDRELVAAIRSGGSTYYADSVKGRFTISRDNAKNTVYLQMNSLKPEHTEVYFCNGRFYSRGYRYYYWGQGTQVTVSS | high polyreactivity
43 | QVQLVESGGGLVQAGGILRLSCAASGRTLYHYVMGWYRQAPGKERELVAAISSGGSTYYADSVKGRFTISRDNAKNTVYLQMNSLKPEDTEVYYCAAGRRGDWGQGTQVTVSS | high polyreactivity
